Results as given in the nanobody polyreactivity screen of Harvey et al. (2022).

experiment: yeast display, Sf9 membrane polyspecificity reagent, FACS + sequencing; frameworks hold sequencing errors
Summary of the method: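 Synthetic nanobody libraries on Saccharomyces cerevisiae BJ5465 were galactose-induced for 36–48 hours, stained 1 hour at 4 °C with 10% biotinylated, detergent-solubilized Sf9 membrane reagent and enriched on streptavidin microbeads. FACS then separated cells into low and high (top ~1%) gates by anti-HA (expression) and streptavidin (reagent binding) fluorescence. Genes were colony-PCR amplified, MiSeq 2 × 250 sequenced and CDR-length filtered. A clone's polyreactivity label is that of its gate of origin.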

Sequence	polyreactivity (PSR sort gate)
QVLLVESRGALVQAGGSLRLSCAASGSTFYWYAMGRYRQAPGKERELVASITRSGVRTYYADSVKGRFTISRDNGKNTVYLQMNSLKPEDTAVYYCAAERYYFPRSFRYGYWGQGTQVTVSS	low polyreactivity
QVQLQESGGGLVQARGSLRLSSAASGYISYLDFMGWYGQAPGKERELVAGITTGATTNYADSVKGRFTISRDNAKNIVYQQINSLKQEDTAVYYCARGTEVKSGISYRFYYWGQGTQVTVSS	low polyreactivity
QVQLVESGGGLVQAGGSLRLSCAASGRTFVSYVMGWYRQAPGKERELVAAITWRGGSTYYADSVKGRFTISRDNAKNTVYLQMNSLKPEDTAVYYCAAPSHGSTSDRYYKFYYWGQGTQVTVSS	high polyreactivity
QVQLVESGGGLVQAGGSLRLSCAASGSIFYWNTMGWYRQAPGKERELVAAIRRGGNTYYADSVKGRFTISRDNAKNTVYLQMNCLKPEDTAVYYCNRDGTYVYHGGEYWGQGTQVTVSS	low polyreactivity
QVQLVESGGGLVQAGGRLRLSCAASGRIFWINDMGWYRQAPGKERELVAAITWSGASTYYADSVKGRFTISRDNAKNTVYLQMNSLKPEDTAVYYCAAVIADSLYYSYDYWGQGTQVTVSS	high polyreactivity
QVPLVESGGGLVQAGGSLRLSCAASGRSFTSNAMGWYRQAPGKEREFVAAITIRGGSTYYADSVKGRFTISRDNATNTVYLQMHSLKPEDTALYYCAVGRRKTWGDYWGQGTQVTVSS	high polyreactivity
QVQLVESGGGLVQAGGSLRLSCAASGRIFNANAMGWYRPAPGKESELVAAISSSGGSTYYSDSVKGRFTISRDNAKNTVYLHMNSLKPEDTAVYYCKDEWGWRYSSDFDYWGQGTQVTVSS	low polyreactivity
QVQLVESGGGLVQAGGSLRLSCAASGNIFEYYAMGWYRQAPGKERELVATITSGGSTNYADSVKGRFTISRDNAKNTVYLQMNSLKPEDTAVYYCNADIISVSVYYFIVEYDYWGQGTQVTVSS	low polyreactivity
QVQLVESGGGLVQAGGSLRLSCAASGRTGSYAMGWYRQAPGQERELVAAISRRGANTYYADSVKGRFTISRDNAKNTVYLQMNSLKPEVTAVYYCAVPHLYSRVEYDYWGQGSQVTVSS	high polyreactivity
QVQLVESGGGLVQAGGSLRLSCAASGSILCLNAMGWYRQAPGKERELVADITRGGSTYYADSVKGRFTISRDNAKNTVYLQMNSLKPEDTAVNYCAADAYTGQIPYYYFEHYYWGQGTQVTVSS	high polyreactivity
QVQLVESGGGLVQAGGSLRLSCAASGFTFSQYAMGWYRQAPGKERELVAAISRSGGSTYYADSVKGRFTISRDNAKNTVYLQMNSLKPEDTAVYYCAARGPVGYGWRYRPWHDYWGQGTQVTVSS	high polyreactivity
QVQLVESGGGLVQAGGSLRLSCAASGGIFSRNAMGWYRQAPGKERELVADISRTGDSTYYADSVKGRFTISRDNAKNTVYLQMNSLKPEDTAVYYCNRDAFVGDRTVRVTTTNWGQGTQVTVSS	low polyreactivity
QVQLVESGGGLVQAGGSLRLSCAASGSTFSGYAMGWYRQAPGKERELVATISGGGSTYYADSVKGRFTISRDNAKNTVYLQMNSLKPEDTAVFYCNAQGYGIFTSSLDYWGQGTQVTVSS	low polyreactivity
QVQLVESGGGLVQAGGSLRLSCAASGSTFYLYAMGWYRQAPGKEREFVAAITYSAGSTYYADSVKGRFTISRDNAKNTVYLQMNSLKPEDTAVYYCAARHYAVRRSRYPGKLGYYWGQGTQVTVSS	high polyreactivity
QVQRVESGGALVQAGGSLRLSCAASGSTFYAYAMGWYRPAPGKERELVAAITYRDGRTYYADSVKGRFTISRDNAKNTVYLQMNRLKQEDTAVYYCARKTGFTVRRYDYWGHGTQVTVSS	high polyreactivity
QVQLVESGGGLVQAGGSLRLSCAASGRTFSGNTMGWYRQAPGKERELVAAITGRGGSTYYADSVKGRFTISRDNANNTVYLQMNSLKPEDTAVYYCAALRYTFAGRFDYWGQGTQVTVSS	high polyreactivity
QVQLVESGGGLVQAGGSLRLSCAASGSTFIRNAMGWYRQAPGKERELVAAINSGGNTYYADSVKGRFTISRDNAKNTVYLQMNSLKPEDTAVYYCAKAWGTYRSVYYRGYYWGQGTQVTVSS	high polyreactivity
QVQLVESGGGLVQAGGSLILSCAASYAMGWYRQAPGKERELVATIKSGGVSTYYADSVKGRFTISRDNAKNTVYLQMNCLKPEDTAVYDCAANASHSTSADYDYWGQGTQVTVSS	low polyreactivity
QVQLVESAVGLVQAGGSLRLSCAASGILFARYAMGWYRQAPGKERELVAVISGSGGSTYYADSVKGRFTISRDNAKNTVYLQMNSLKPEDTAVYYCNAEFESGHDLDWYDYWGQGTQVTVSS	low polyreactivity
QVQLVESGVGFVQAGGSLRLSCAASGSTFGYYDMGWYRQAPGKERELVASIRSSGSTYYADSVKGRFTISRDNPKHTVYFQMNSLKPEDTAVYYCNTASLYHRWQGSWPKYDYWGQGTQVTVSS	high polyreactivity

Sequence	polyreactivity (PSR sort gate)
QVQLVESGGGLVQAGGSLRLSCAASGSIFKLNAMGWYRQAPGKERELVAAISRGGRKYYADSVKGRFTISRDNAKNTVYLQMNSLKPEDTAVYYCAADASSQIWYYPRDDYWGQGTQVTVSS	low polyreactivity
QVQLVESGGGLVQAGGSLRLSCAASGSMFEGYAMGRYLQAPGKVRELVAAMTWSSGSTYYADSVKGRFTISRDNAKNTVYLQMNSLKPEETAVYSCAVDGGDFSSYGYWGQGTQVTVSS	low polyreactivity
QVQLVESGGGLVQAGGSLRLSCAASGSIFFINAMGWYRQAPGKERELVASISQSGVSTYYADSVKGRFTISRDNAKNTVYLQMNSLKPEDTAVYYCATGPVRRARYVWSYTYYYWGQGTQVTVSS	low polyreactivity
QVQLVESGGGLVQAGGSLRLSCAASGRIFSFNAMGWYRQAPGKERELVAGITDSGGSTYYADSVKGRFTISRDNAKNTVYSQMNSLKPEDTAVYYCNAEWPYSRVRDYFYAYDYWGQGTQVTVSS	low polyreactivity
QDQLVESGGGLVQAGGSLRLSCAASGSTSYRYSMGWYRQAPGKEREFVAAISWSGGSTYYADSVKGRFTISRDTAKNTVYLQMNSLKPEDTAVYYCAAVSRRGSARFDYWGQGTQVTVSS	high polyreactivity
QVQLVESGGGLVQAGGSLRLSCAASGSIFYYYAMGWYRQAPGKERELVAAIDSGGSTYYADSVKGRFTISRDNAKNTVYLQMNSLKPEDTAVYYCAADTYWFVYYGYDYWGLGTQVTVSS	low polyreactivity
QVQLVESGGGIVQAGGSLRLRCAASVRIFPCNTMGWYRQAPGKERELVAGINNGDRTYYADSVKGRFTISRDYAKNTVYLQMNILKPEDTAVYYCAADYVYFYFYGYDSWGQRTQVTVSS	low polyreactivity
QVQLVESGGGLVQAGGSLRLSCAASGSTFVFYVMVWYRQAPGKERQLVAAITGSTTSTYYAVSVKGRFTISRDNAKNTVYLQMNSLKPEDTAVYYCAAEVLRGRGFGYWGQGTQVCVSS	high polyreactivity
QVQLVESWAGLVQAGGSLRLSCAASGIIFHFNDMGWYRQAPGKERELVAAITSGGSTNYADSVKARFTISRDNAKNNVYLQMNSLKPEDTAVYYCAARRGLRLFAYSHGYWGQGSQVTVSS	low polyreactivity
QVQLVESGGGLVQAGGSLRLICAASGFIFSFNAMGWYRQAPGKERELVAAIRRSAGSTYYADSVKGRFTISRDNAKNTVYLQMNSLKPEDTAVYYCATVTRLYRHGYWGQGTQVTVSS	high polyreactivity
QVQLVESGGGLVQAGGSLRLSCAASGGTFFSYAMGWYRQAPGKERELVAAISRGGDTTYADSVKGRFTISRDNAKNTVYLQMNSLKPEDTAVYYCAARVPPLLTDSPVFPYDYWGQGTQVTVSS	low polyreactivity
QVQLVESGGGLVQAGGSLRLSCAASGRTISSYAMGWSRQAPGKERELVAAISRSGGNTYYPDSVKGRFTISRDHAKNTVYLQMNSLKPEDTAVYYCNARGRTGFQADKFGYWGQGTQVTVSS	high polyreactivity
QLQLVESGGGLVQAGGSLSLTFAASGIISNYNAMGWYIQAPGKERELVSAISRSGTRKYYADSVKGRYTISRDNAKNTVYLQMNSLKPEDTAVYDCAAPSWSSKGYCKGYYWGQGTQVTVSS	high polyreactivity
QVQLVESGGGLVQAGGSLRLSCAASGFIFGYNAMGWYRQAPGKERELVAAIRAGDGSTYYADSVKGRFTISRDNAKNTVYLQMNSLKPEDTAVYYCAAAWRQSGYRYGYWGQGTQVTVSS	high polyreactivity
QVQLVESGGGLVQAGGSLRLSCAASGFIFDSYVMGWYRQAPGKERELVAAISRRNSSTYYADSVKGRFTNSRDNAKNTVYLQMNSLKPEDTAVYYCAAKYLRAYGYWGQGTQVTVSS	high polyreactivity
QVQLVESGGGLVQAGGSLRLSCAASAFTFYTNAMGWYRQAPGKERELVAAISGGGSTKYADSVKGRFTISRDNAKNTVYLQMNSLKPEDTAVYYCAAQIKWGYRRNRHDYWGQGTQVTVSS	high polyreactivity
QVQLVESGGGLVQAGGSLRLICAASGSTFSYYAMGWYRQAPGKEMELVAAITSGSSTNYADSVKGRFTISRDNAKNTVYLQMNSLKPEDTAVYYCAASPQPKTYRRRYYYWGQGTQVTVSS	high polyreactivity
QVQLVESGGGLVQAGGSLRLSCAASGSIFSGNAMGWYRQAPGKERELVAAITTRSGSTYYADSVKGRFTISRDNAKNTVYLQMNSLKPEDTAVYYCAATGYRYRRIYGFDYWGQGTQVTVSS	high polyreactivity
QVQLVESGGGLVQAGGSLRLSCAASGSIFDDYAMGWYRQAPGNERELVAAITSGGSTYYADSVKGRFTISRDNAKNTVYLQMNSLKPEDTAVYYWAAPENKSDEYDYWGQGTQVTVSS	low polyreactivity
QVQLVESGGGLVQAGGSLRLSCAASGITFFGYAMGWYRQAPGKERELVAGISRSTGRTYYADSVKGRFTISRDNAKNTVYLHMNSLKPEDTAVYYCNAELYPWPGVVRYNYWGQGTQVTVSS	high polyreactivity
